Patent WO2016092096A1 (dated 2016)
Changes are numbered by the printed parent chain.

B1: anti-OXA-48 antibody 1461 (antibody, V domains shown)
VH: QVQLKQSGAELGRPGSSVKLSCKTSGYKFKSYGINWVKQRPGQGLEWIGYIYPGSGYIEYNEKFQGEATLTSDTSSSTAYMQLRSLTSEDSAIYFCGRLGDGYFFYAMDYWGQGTSVTVSS
VL: QIVLTQSPTTMAASPGEKITITCSASSSISSNYMHWYQQKPGFSPKLLIYRTSNLGSGVPVRFSGSGSGTSYSLTIGTMEAEDVATYYCQQGSSIPFTFGSGTKLEIKR
notes: Used as capture antibody spotted on the array
B2: anti-OXA-48 antibody 1281 (antibody, V domains shown)
VH: DVQLQQSGPEMVKPGASVKISCKAFGYTFSDYYMYWVKQSHGKSLEWIGRVNGNNGDTRYNQKFEGKATLTVDKSSSTAYMELNSLTSEDSAVYYCARGDYLAYWGQGTTLTVSS
VL: NIVLTQSPASLAVSLGQRASISCRAIKSVDSYGTSFMHWYQQKPGQPPKLLIYRASNLESGIPARFSGSGSRTDFTLTINPVEADDVATYYCHQSNEAPYTFGGGTKLEIKR
notes: It was selected from a phage display Fab library
B3: anti-VIM antibody 1071 (antibody, V domains shown)
VH: QVKLQQSGPELARPGASVKLSCKASGYTFRSYGITWVKQRTGQGLEWIGEIYPESNISYYNEKFKGTATLTTDKSSSTAYMQLSSLTSEDSAVYFCARRDYDGSYIYWGQGTTLTVSS
VL: B1 VL with K18N, Y33F, M34L, W36G, G56A, V61T, S93D, I95L, F97R, S101G
notes: It was selected from a phage display Fab library; Used as capture antibody
B4: antibody 1721 (SEQ ID Nos: 19 and 23), detector antibody for VIM (antibody, V domains shown)
VH: QVQLQQPGSVLVRPGTSVKLSCKASGYTFTSYWMHWVKQRPGQGLEWIGEIYPNSGKTNYNEKFKGKATLTVDTSSSTAYVALNSLTSEDSAVYYCAKRYSLYDFTLDYWGQGTSVTVSS
VL: DIKMTQSPKSMSMSVGERVTLTCKASENVGTFVSWYQQKLDQSPKLLIYGASKRYTGVPDRFTGSGSATDFTLAISSVQAEDLADYHCGQSFSYPLTFGAGTKLELKR
notes: The detector is labelled with biotin
B5: anti-NDM antibody 1041 (antibody, V domains shown)
VH: QVQLKQSGAELARPGASVKLSCKASGYTFRGYGISWVKQRTGQGLEWIGEIYPGSGNTHYNEKFKGKATLTADKSSSTAYMQLSSLTTEDSAVYFCADLGSWFANWGQGTLVTVSA
VL: DIVLTQSPATLSVTPGDSVSLSCRASQSIYNNLHWYQQKSHESPRLLIKYASQSISGIPSRFSGSGSGTDFTLSINSVETEDFGMYFCQQSNSWPYTFGAGTKLELKR
notes: as for B3
B6: anti-NDM antibody 1121 (antibody, V domains shown)
VH: QVQLQQSEADLVRPGSSVKISCKASGYAFSNSWINWVKQRPGQGLEWIGQINPGDGNTKYNGKFKGKVILTADKSSSTAYMQLSSLTSEDSAVYFCERETPLWSFVYWGRGTLVTVSA
VL: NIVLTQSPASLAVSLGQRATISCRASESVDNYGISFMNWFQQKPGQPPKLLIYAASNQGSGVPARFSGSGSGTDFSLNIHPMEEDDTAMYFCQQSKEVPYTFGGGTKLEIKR
notes: Used as detector antibody, labelled with biotin

Tests used:
[1] = biological target: T1, OXA-48 carbapenemase (Klebsiella pneumoniae, UniProt Q6XEC0 23-265); test: sandwich on ArrayTube array, 1461 capture and biotin-labelled 1281 detector, cultivated cells of clinical strains
T1 sequence (Q6XEC0 23-265 limits assumed): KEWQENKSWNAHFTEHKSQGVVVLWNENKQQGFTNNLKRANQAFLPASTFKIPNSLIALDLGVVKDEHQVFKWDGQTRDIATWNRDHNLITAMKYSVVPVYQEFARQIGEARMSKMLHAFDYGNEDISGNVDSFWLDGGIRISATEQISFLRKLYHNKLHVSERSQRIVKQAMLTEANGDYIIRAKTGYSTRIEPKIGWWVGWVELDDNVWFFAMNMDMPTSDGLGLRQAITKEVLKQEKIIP

[2] = biological target: T1, OXA-48 carbapenemase; test: sandwich on ArrayTube array as in Example 2; cell supernatant denatured 10 min at 99°C
[3] = biological target: T2, VIM carbapenemase (Pseudomonas aeruginosa (strain ATCC …, UniProt A0A0F7KYQ8 21-266)); test: as above
T2 construct: The antigen in the assays came from VIM-positive strains or from supernatants of expressing cells

[4] = biological target: T3, NDM carbapenemase (Klebsiella pneumoniae, UniProt C7C422 29-270); test: as above
T3 construct: The antigen in the assays came from NDM-positive strains or from supernatants of expressing cells
T3 sequence (C7C422 29-270 limits assumed): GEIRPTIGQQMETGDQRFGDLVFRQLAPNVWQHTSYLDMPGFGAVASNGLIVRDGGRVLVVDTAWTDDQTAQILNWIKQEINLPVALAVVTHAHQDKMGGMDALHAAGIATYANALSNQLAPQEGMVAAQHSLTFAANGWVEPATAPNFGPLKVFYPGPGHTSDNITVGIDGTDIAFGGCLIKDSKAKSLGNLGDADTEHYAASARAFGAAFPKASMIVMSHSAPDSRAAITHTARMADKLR

Binder | binding result [3] | binding result [4] | further results
B1 |  |  | binding result [1]: binds
B2 |  |  | binding result [2]: binds
B3 | binds |  | 
B4 | binds |  | 
B5 |  | binds | 
B6 |  | binds | 
